According to US20240148884A1:

What was measured:
Test in all cases: cell-based or functional assay
dog GLP1R (dog) = target: dog GLP1R (dog)
[1] = target: cynomolgous monkey GLP1R (cynomolgous monkey)
mouse GLP1R (mouse) = mouse GLP1R (mouse) (UniProt O35659)
dog GIPR (dog) = target: dog GIPR (dog)
human GIPR (human) = target: T1, human GIPR (human) (UniProt P48546)
T1 sequence (looked up): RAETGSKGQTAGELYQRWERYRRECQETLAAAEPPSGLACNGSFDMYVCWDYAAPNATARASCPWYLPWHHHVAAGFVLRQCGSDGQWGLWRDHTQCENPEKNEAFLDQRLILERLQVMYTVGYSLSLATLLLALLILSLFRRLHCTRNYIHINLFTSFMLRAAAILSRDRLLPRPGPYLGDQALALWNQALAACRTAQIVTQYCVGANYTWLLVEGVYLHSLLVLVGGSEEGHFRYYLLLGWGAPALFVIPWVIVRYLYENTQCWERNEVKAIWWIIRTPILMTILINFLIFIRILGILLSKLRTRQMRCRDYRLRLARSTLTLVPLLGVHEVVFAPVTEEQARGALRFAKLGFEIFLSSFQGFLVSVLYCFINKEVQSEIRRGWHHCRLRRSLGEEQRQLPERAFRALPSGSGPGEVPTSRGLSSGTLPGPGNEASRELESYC

mouse GIPR (mouse) = target: T2, mouse GIPR (mouse) (UniProt Q0P543)
T2 sequence (looked up): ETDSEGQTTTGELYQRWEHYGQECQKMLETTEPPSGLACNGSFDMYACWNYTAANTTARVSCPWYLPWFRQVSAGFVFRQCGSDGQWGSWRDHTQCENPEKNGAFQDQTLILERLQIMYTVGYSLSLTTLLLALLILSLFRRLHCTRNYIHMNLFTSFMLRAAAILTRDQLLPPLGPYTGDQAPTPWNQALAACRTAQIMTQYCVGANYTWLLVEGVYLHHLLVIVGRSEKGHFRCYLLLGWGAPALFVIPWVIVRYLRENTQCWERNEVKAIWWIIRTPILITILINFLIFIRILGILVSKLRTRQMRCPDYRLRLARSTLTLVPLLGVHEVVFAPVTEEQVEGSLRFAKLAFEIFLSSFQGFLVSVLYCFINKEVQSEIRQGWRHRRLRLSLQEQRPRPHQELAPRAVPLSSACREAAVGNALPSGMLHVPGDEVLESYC

[2] = target: cynomolgous monkey GIPR (cynomolgous monkey)

Chain of mouse GLP1R (mouse) (O35659 22-463 limits assumed): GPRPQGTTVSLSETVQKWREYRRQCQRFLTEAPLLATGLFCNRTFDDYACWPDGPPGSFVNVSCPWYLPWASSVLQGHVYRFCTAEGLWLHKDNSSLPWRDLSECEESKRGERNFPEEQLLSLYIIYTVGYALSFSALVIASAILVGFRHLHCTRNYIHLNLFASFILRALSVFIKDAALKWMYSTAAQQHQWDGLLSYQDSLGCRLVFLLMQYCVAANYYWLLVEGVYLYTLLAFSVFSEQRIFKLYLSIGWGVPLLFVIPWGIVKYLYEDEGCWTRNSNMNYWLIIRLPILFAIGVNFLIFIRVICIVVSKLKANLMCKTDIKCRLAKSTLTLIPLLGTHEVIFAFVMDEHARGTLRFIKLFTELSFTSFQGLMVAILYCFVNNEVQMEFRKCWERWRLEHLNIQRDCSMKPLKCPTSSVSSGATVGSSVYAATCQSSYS
Chain of dog GLP1R (dog) (chain, as listed by the source): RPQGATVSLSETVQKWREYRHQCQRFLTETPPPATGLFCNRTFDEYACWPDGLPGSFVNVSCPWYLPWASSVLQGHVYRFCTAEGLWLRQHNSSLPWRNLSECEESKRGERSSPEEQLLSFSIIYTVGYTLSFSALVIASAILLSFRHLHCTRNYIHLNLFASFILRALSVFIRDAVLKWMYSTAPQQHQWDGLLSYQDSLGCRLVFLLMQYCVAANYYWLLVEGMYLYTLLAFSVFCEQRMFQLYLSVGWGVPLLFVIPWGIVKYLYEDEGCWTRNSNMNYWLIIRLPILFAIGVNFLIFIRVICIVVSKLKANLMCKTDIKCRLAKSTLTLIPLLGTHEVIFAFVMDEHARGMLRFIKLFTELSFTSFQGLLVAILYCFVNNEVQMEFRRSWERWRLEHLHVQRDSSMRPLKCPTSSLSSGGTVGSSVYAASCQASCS

Substance	In Vitro Potency GLP1R EC50 [nM], Dog (dog GLP1R (dog)) [nM]	In Vitro Potency GLP1R EC50 [nM], Cyno [1] [nM]	In Vitro Potency GLP1R EC50 [nM], Mouse (mouse GLP1R (mouse)) [nM]	In Vitro Potency GIPR EC50 [nM], Dog (dog GIPR (dog)) [nM]	In Vitro Potency GIPR EC50 [nM], 10% FBS (human GIPR (human)) [nM]	In Vitro Potency GIPR EC50 [nM], No Serum (human GIPR (human)) [nM]	In Vitro Potency GIPR EC50 [nM], Mouse (mouse GIPR (mouse)) [nM]	In Vitro Potency GIPR EC50 [nM], Cyno [2] [nM]
Semaglutide (peptide)	0.67	0.13	0.1					
wild-type human GIP (hGIP) (from UniProt P09681 52-93) (ligand)				0.7	0.01	0.05	0.34	0.69
Tirzepatide (peptide)			0.16	0.1		0.006		0.08
